Laboratory results published in patent publication US12624112 (MABWELL SHANGHAI BIOSCIENCE, dated 2026).

How the values were obtained:
[1] = molecular target: T1, ST2 on KU812 cells (UniProt Q01638 19-556, limits assumed); experiment: cell-based or functional assay
T1 sequence (looked up): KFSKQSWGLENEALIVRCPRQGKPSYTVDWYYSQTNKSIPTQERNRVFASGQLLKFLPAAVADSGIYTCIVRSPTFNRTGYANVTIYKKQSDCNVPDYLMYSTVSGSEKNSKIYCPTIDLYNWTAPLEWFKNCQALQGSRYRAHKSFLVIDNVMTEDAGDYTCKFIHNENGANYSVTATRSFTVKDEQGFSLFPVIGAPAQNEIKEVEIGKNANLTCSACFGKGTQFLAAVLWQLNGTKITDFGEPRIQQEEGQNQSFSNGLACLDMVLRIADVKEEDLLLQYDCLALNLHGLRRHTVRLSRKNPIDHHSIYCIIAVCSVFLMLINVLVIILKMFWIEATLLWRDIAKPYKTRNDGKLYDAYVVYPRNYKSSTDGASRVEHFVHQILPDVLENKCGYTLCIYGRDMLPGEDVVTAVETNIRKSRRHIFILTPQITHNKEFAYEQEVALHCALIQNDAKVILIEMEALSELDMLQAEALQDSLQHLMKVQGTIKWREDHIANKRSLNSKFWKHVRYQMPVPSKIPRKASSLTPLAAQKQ

[2] = molecular target: T1, ST2 on KU812 cells; experiment: cell-based or functional assay; remark: listed apart in the source
[3] = molecular target: T2, Cyno ST2-fc (cyno; human, UniProt A0A2K5UDB8 19-331); experiment: ELISA, coated cyno ST2-fc
T2 construct: also called cyno ST2 fused with a human IgG1 Fc tag at the C-terminus
T2 sequence: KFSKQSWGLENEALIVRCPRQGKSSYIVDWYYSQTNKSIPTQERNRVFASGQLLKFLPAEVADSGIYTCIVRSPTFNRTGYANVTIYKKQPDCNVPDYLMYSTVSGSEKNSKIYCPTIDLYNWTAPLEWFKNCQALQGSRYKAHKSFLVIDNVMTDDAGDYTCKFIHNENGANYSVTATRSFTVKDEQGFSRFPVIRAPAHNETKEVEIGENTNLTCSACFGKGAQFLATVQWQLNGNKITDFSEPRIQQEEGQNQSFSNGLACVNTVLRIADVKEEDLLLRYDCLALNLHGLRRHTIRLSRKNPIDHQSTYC
Procedure: Cyno ST2-fc was diluted with a coating buffer to 1 μg/mL, added into 96-well plates at 50 μL/well and coated overnight at 4° C. Next day, the coated plates were taken, washed with PB ST for 3 times, and then incubated using a blocking buffer at room temperature for 1 hr. Subsequently, the plates were washed with PBST for 3 times again. Starting at 1000 ng/mL, each murine antibody was diluted 3-fold to obtain serial dilutions of 8 concentrations in total which were then added into the 96-well plates at 50 μL/well. The plates were incubated at room temperature for 1 hr, washed with PB ST for 3 times; and then a goat anti-mouse secondary antibody (1:10000) was added at 50 μL/well into the 96-well plates which subsequently were incubated at room temperature for 1 hr. The 96-well plates were washed with PB ST for 3 times, and TMB was added at 50 μL/well to develop color in dark for 10 min. Afterwards, 2 M sulfuric acid was added to stop reaction; and GD values at 450 nm were read by a microplate reader. It can be seen that the murine antibodies can bind to cyno ST2, with a binding trendency consistent with the binding to human ST2.

[4] = molecular target: T3, Human ST2-his (human, UniProt Q01638 19-328); experiment: ELISA, coated human ST2-his
T3 construct: Expressed in CHO-K1; also called human ST2 fused with a 6-histidine tag at the C-terminus
T3 sequence: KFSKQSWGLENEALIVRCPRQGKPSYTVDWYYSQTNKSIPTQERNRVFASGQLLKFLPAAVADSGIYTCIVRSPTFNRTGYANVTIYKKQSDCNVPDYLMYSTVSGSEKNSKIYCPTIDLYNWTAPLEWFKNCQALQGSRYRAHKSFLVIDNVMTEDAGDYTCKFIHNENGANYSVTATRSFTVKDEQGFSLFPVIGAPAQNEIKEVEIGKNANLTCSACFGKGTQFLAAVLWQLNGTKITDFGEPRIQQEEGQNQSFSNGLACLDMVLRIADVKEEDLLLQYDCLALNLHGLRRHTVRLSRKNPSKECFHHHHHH
Procedure: Human ST2-his was diluted with a coating buffer to 1 μg/mL, added into plates at 50 μL/well, and coated overnight at 4° C. Next day, the coated plates were taken, washed with PBST for 3 times, and then incubated using a blocking buffer at room temperature for 1 hr. Subsequently, the plates were washed with PBST for 3 times again. Starting at 100 ng/mL, each murine antibody was diluted 3-fold to obtain serial dilutions of 8 concentrations in total which were then added into the 96-well plates at 50 μL/well. The plates were incubated at room temperature for 1 hr, washed with PBST for 3 times; and then a goat anti-mouse secondary antibody (1:10000) was added at 50 μL/well into the 96-well plates which subsequently were incubated at room temperature for 1 hr. The 96-well plates were washed with PBST for 3 times, and TMVB was added at 50 μL/well to develop color in dark for 10 min. Afterwards, 2 M sulfuric acid was added to stop reaction; and GD values at 450 nm were read by a micro-plate reader.

[5] = molecular target: Human ST2-fc (human) (UniProt Q01638); experiment: competition ELISA, coated ST2-fc, competitor IL33-his
[6] = molecular target: T2, Cyno ST2-fc; experiment: SPR Biacore X100, antibody on CM5, cyno ST2-fc analyte
Procedure: The experiment on the interactions between the anti-human ST2 antibodies and cyno ST2-fc was performed using Biacore X100, and was carried out at 25° C. in HBS-EP (1×) buffer (pH 7.4). Each antibody was immobilized on the surface of CM5 chip using an amino coupling kit. Following the antibody immobilization, a solution of cyno ST2-fc (2-fold gradient dilution from a starting concentration of 8 nM, to obtain 6 concentrations in total; the starting concentration might be increased if the signal of some sample was too low) was injected. Association was monitored for 2 min and dissociation for 10 min, and the sensor surface was regenerated by injecting a solution of glycine at pH 1.5.

[7] = molecular target: T3, Human ST2-his; experiment: SPR Biacore X100, antibody on protein A, ST2-his analyte
Procedure: On the basis of the results of the quantitative screenings of murine antibodies above together, 19 murine antibodies were selected for affinity determination and in vitro pharmacological study. The experiment on the interaction between the anti-human ST2 antibodies and human ST2-his was performed using Biacore X100, and was carried out at 25° C. in HBS-EP (1×) buffer (pH 7.4).
Each anti-human ST2 antibody was diluted to 10 nM and captured on the surface of a protein A chip (for a capture time of 60 s). […] Association was monitored for 4 min and dissociation for 10 min, and the sensor surface was regenerated by injecting a solution of glycine at pH 2.0. Data generated for kinetics and affinity assay were analyzed using BIAevaluation software.

[8] = molecular target: T4, ST2 on the effector cells (KU812, KU812/NF-κB-1#, HUVEC, HMC-1) (human, UniProt Q01638 19-556); experiment: cell-based or functional assay
T4 sequence (looked up): T1 sequence (looked up)

[9] = molecular target: T4, ST2 on the effector cells (KU812, …); experiment: cell-based or functional assay; remark: listed apart in the source
[10] = molecular target: T4, ST2 on the effector cells (KU812, …); experiment: cell-based or functional assay; remark: listed apart in the source
[11] = molecular target: T4, ST2 on the effector cells (KU812, …); experiment: cell-based or functional assay; remark: listed apart in the source
[12] = molecular target: T4, ST2 on the effector cells (KU812, …); experiment: cell-based or functional assay; remark: listed apart in the source
[13] = molecular target: T5, Human ST2-his (human, UniProt Q01638-2 19-328, limits assumed); experiment: SPR Biacore X100, ratio of kd at pH 5.5 to kd at pH 7.4
T5 construct: Expressed in CHO-K1; The printed range starts at Met1; also called human ST2 fused with a 6-histidine tag at the C-terminus
T5 sequence: T3 sequence
Procedure: (§1) The experiment on the interaction between the anti-human ST2 antibodies and human ST2-his was performed using Biacore X100.
(§2) Each anti-human ST2 antibody was diluted to 2 µg/mL and captured on the surface of a protein A chip for a capture time of 60 s. Following the antibody capture, a solution of human ST2-his (2-fold gradient dilution from a starting concentration of 20 nM, to obtain 6 concentrations in total) was injected. Association was monitored for 180 s and dissociation was monitored for 700 s, and the sensor surface was regenerated by injecting a solution of glycine at pH 2.0. Kinetic data were analyzed using a simple 1:1 binding model.

[14] = molecular target: T5, Human ST2-his; experiment: SPR Biacore X100, antibody captured on protein A chip, human ST2-his injected, pH 7.4
Procedure: as §1, §2

[15] = molecular target: T5, Human ST2-his; experiment: SPR Biacore X100, antibody captured on protein A chip, human ST2-his injected, dissociation at pH 5.5
Procedure: as §1, §2

B1: 5888-357H+L (antibody, V domains shown)
VH: QVQLQQSVTELVRPGASVTLSCKASGYRFTDSEMHWVKQTPVHGLEWIGTIDPETGGTVYNQKFKGKAKLTADRSSSTVSMELRSLTSEDSAVYYCTRAFYNDFDDGFAYWGQGTLVTVSA
VL: QIVMTQSPAIMSASPGEKVTLTCSASTSVSYMHWYQQKSGTSPKRWIYDTSKLASGVPARFSGSGSGTSYSLTISSMEAEDAATYYCQQWSSNPLTFGAGTKLELK
notes: murine antibody
With B1 the “IC50, activation of KU812-NF-κB reporter gene by IL33” value [1] was 0.0552 µg/mL, the “Relative activity (%) compared with CNTO7160, KU812-NF-κB reporter” value [1] was 454% and the “Maximum inhibition rate (%), KU812 IL-5 production” value [2] was 71%. For the same binder, the “Relative activity (%), KU812 IL-5 production” value [2] was 98.5%, the EC50 [3] was 0.0192 µg/mL and the “Relative activity (%)” value [3] was 127%. The EC50 [4] was 0.0113 µg/mL, the “Relative activity (%) compared with CNTO7160” value [4] was 124% and the IC50 [5] was 0.62 µg/mL. It also gave a Relative activity (%) compared with CNTO7160 [5] of 94.7%, a Kd [6] of 0.129 nM and a koff [6] of 0.000826 s⁻¹. The kon [6] was 6.41e+06 M⁻¹ s⁻¹, the Kd [7] was 0.16 nM and the koff [7] was 0.0007 s⁻¹. It also gave a kon [7] of 4.38e+06 M⁻¹ s⁻¹.

B2: 5888-379H1+L2 (antibody, V domains shown)
VH: QIQLAQSGPELKKPGETVKISCKASGYTFINYGMNWVKQAPGKDLKWMGWINTYIGEPTYGDNFKGRFAFSLETSASTVYLQINNLKNEDTATYFCAREGDGFAYWGQGTLVTVSA
VL: DIVMTQSPPSLSVSVGEKVTMSCKSSQSLLYSGNQNNYLAWYQQKPGQPPKLLIYGASTRESGVPDRFTGSGSGTDFTLTISSVQAEDLAVYYCQNDHSYPYTFGGGTKLEIK
notes: murine antibody
B2 was tested, and the “IC50, activation of KU812-NF-κB reporter gene by IL33” value [1] was 0.391 µg/mL, the “Relative activity (%) compared with CNTO7160, KU812-NF-κB reporter” value [1] was 64.2% and the “Maximum inhibition rate (%), KU812 IL-5 production” value [2] was 92.7%. For the same binder, the “Relative activity (%), KU812 IL-5 production” value [2] was 19.2%, the EC50 [3] was 0.0602 µg/mL and the “Relative activity (%)” value [3] was 40.6%. The EC50 [4] was 0.0295 µg/mL, the “Relative activity (%) compared with CNTO7160” value [4] was 33.9% and the IC50 [5] was 0.83 µg/mL. For the same binder, the Relative activity (%) compared with CNTO7160 [5] was 70.1%, the Kd [6] was 0.0317 nM and the koff [6] was 0.000152 s⁻¹. It also gave a kon [6] of 4.78e+06 M⁻¹ s⁻¹, a Kd [7] of 0.571 nM and a koff [7] of 0.000546 s⁻¹. The kon [7] was 957000 M⁻¹ s⁻¹.

B3: 5888-379-H1L0 (antibody, human IgG4 S228P, kappa, V domains shown)
VH: QVQLVQSGAEVKKPGASVKVSCKASGYTFINYGMNWVRQAPGQRLEWMGWINTYIGEPTYGDNFKGRVTITRDTSASTAYMELSSLRSEDTAVYYCAREGEGFAYWGQGTLVTVSS
VL: DIQMTQSPSSLSASVGDRVTITCKSSQSLLYSGNQNNYLAWYQQKPGKVPKLLIYGASTRESGVPSRFSGSGSGTDFTLTISSLQPEDVATYYCQNDHSYPYTFGGGTKVEIKR
notes: Humanized antibody
In the case of B3, the “IC50, inhibition of KU812-IL5 production promoted by IL-33 (human IL33-his)” value [8] is reported as 0.0874 µg/mL, the “Maximum inhibition rate, KU812-IL5 production by IL-33” value [8] is reported as 99.4% and the “Relative activity compared with CNTO7160, KU812-IL5 production by IL-33” value [8] is reported as 131%. The “IC50, inhibition of KU812-IL5 production promoted by oxidized IL33” value [9] was 0.0161 µg/mL, the “Maximum inhibition rate, KU812-IL5 production by oxidized IL33” value [9] was 101% and the “Relative activity, KU812-IL5 production by oxidized IL33” value [9] was 137%. The “IC50, inhibition of KU812-IL5 production promoted by reduced IL33” value [10] was 2.87 µg/mL, the “Maximum inhibition rate, KU812-IL5 production by reduced IL33” value [10] was 96.7% and the “Relative activity, KU812-IL5 production by reduced IL33” value [10] was 51.1%. The “IC50, inhibition of HUVEC-IL6 production promoted by IL33” value [11] was 16.1 µg/mL, the “Maximum inhibition rate, HUVEC-IL6 production by IL33” value [11] was 83% and the “Relative activity, HUVEC-IL6 production by IL33” value [11] was 16.9%. The “IC50, inhibition of HMC-1 IL8 production promoted by IL33” value [12] was 0.334 µg/mL, the “Maximum inhibition rate, HMC-1 IL8 production by IL33” value [12] was 85.6% and the “Relative activity, HMC-1 IL8 production by IL33” value [12] was 30.1%. For the same binder, the IC50 [5] was 0.465 µg/mL, the Maximum inhibition rate [5] was 89.1% and the Relative activity compared with CNTO7160 [5] was 188%. For the same binder, the “kd ratio of pH 5.5/pH 7.4” value [13] was 7.26, the Kd [14] was 0.452 nM and the koff [14] was 0.000351 s⁻¹. The kon [14] was 777000 M⁻¹ s⁻¹, the Kd [15] was 1.43 nM and the koff [15] was 0.00255 s⁻¹. The kon [15] was 1.79e+06 M⁻¹ s⁻¹.
